# Data: IntAct's records for PubMed 34502139
# B1: Mitochondrial import receptor subunit TOM70 (Homo sapiens), O94826 (parent)
# chain: MAASKPVEAAVVAAAVPSSGSGVGGGGTAGPGTGGLPRWQLALAVGAPLLLGAGAIYLWSRQQRRREARGRGDASGLKRNSERKTPEGRASPAPGSGHPEGPGAHLDMNSLDRAQAAKNKGNKYFKAGKYEQAIQCYTEAISLCPTEKNVDLSTFYQNRAAAFEQLQKWKEVAQDCTKAVELNPKYVKALFRRAKAHEKLDNKKECLEDVTAVCILEGFQNQQSMLLADKVLKLLGKEKAKEKYKNREPLMPSPQFIKSYFSSFTDDIISQPMLKGEKSDEDKDKEGEALEVKENSGYLKAKQYMEEENYDKIISECSKEIDAEGKYMAEALLLRATFYLLIGNANAAKPDLDKVISLKEANVKLRANALIKRGSMYMQQQQPLLSTQDFNMAADIDPQNADVYHHRGQLKILLDQVEEAVADFDECIRLRPESALAQAQKCFALYRQAYTGNNSSQIQAAMKGFEEVIKKFPRCAEGYALYAQALTDQQQFGKADEMYDKCIDLEPDNATTYVHKGLLQLQWKQDLDRGLELISKAIEIDNKCDFAYETMGTIEVQRGNMEKAIDMFNKAINLAKSEMEMAHLYSLCDAAHAQTEVAKKYGLKPPTL
# Variants of: B1
# Conditions: with orf9b_sars2 orf9b
row,Variant,effect of a mutation on the interaction
1,E477A,decreasing interaction strength

# Variants of: B1
# Conditions: with orf9b_sars2 orf9b
# Remark: another data set of the same source
row,Variant,effect of a mutation on the interaction
1,R192A,decreasing interaction strength
